Assay results: US7662583B2, “Bioreactor containing cells expressing glycosyltransferase nucleic acids isolatable from Arabidopsis” (The University of York, priority 2003, dated 2010)

Assay: UGT enzyme reaction with quercetin (recombinant UGTs, HPLC)
Assay type: biochemical, Arabidopsis
Details: 0.5 mM quercetin, 5 mM UDP-glucose, 30° C.; for Specific activity (nkat/mg protein) 3-O-glc: quercetin glucosylated at 3-OH; for Specific activity (nkat/mg protein) 3′-O-glc: quercetin glucosylated at 3′-OH; for Specific activity (nkat/mg protein) 4′-O-glc: quercetin glucosylated at 4′-OH; for Specific activity (nkat/mg protein) 7-O-glc: quercetin glucosylated at 7-OH
Experimental: The assay mix (200 μl) contained 2 μg of recombinant protein, 100 mM Tris-HCl, pH 7.0, 5 mM UDP-glucose 1.4 mM 2-mercaptoethanol, and 0.5 mM of quercetin. The reaction was carried out at 30° C. for 1 h, and was quick-frozen and stored at −20° C. prior to the reverse-phase HPLC analysis
Reverse-phase HPLC (SpectraSYSTEM HPLC systems and UV6000LP Photodiode Array Detector, ThermoQuest) analysis was carried using a Columbus 5μ C18 column (250×4.60 mm, PHENOMENEX). Quercetin glucosides were separated from the aglycone by a linear gradient of 10-75% acetonitrile in H2O (all solution contained 0.1% trifluoroacetic acid) at 1 ml/mm over 20 mm and monitored at 370 nm. Cytokinin glucosides were separated from their aglycone by a liner gradient of 10-100% methanol in H2O (for N6-isopentenyladenine (iP), N6-benzyladenine and kinetin) or 10-60% methanol in H2O (for trans-zeatin and dihydrozeatin) at 1 ml/min over 20 mm. All solution contained 0.25% acetic acid and 0.04% triethylamine, trifluoroacetic acid. The separation was monitored at 206 nm and 252 nm. The identity of the products was confirmed by comparison with authentic gluco sides.
The activity of Arabidopsis recombinant UGTs towards quercetin was determined using the platform developed previously^15.

B1: UGT71E8: Arabidopsis recombinant glycosyltransferase as printed in Table 1A; probably UGT71B8 of FIG. 1 (protein, UniProt Q9LSY4 1-480, looked up)
UDP-glycosyltransferase 71B8: MNKFALVFVPFPILGHLKSTAEMAKLLVEQETRLSISIIILPLLSGDDVSASAYISALSAASNDRLHYEVISDGDQPTVGLHVDNHIPMVKRTVAKLVDDYSRRPDSPRLAGLVVDMFCISVIDVANEVSVPCYLFYTSNVGILALGLHIQMLFDKKEYSVSETDFEDSEVVLDVPSLTCPYPVKCLPYGLATKEWLPMYLNQGRRFREMKGILVNTFAELEPYALESLHSSGDTPRAYPVGPLLHLENHVDGSKDEKGSDILRWLDEQPPKSVVFLCFGSIGGFNEEQAREMAIALERSGHRFLWSLRRASRDIDKELPGEFKNLEEILPEGFFDRTKDKGKVIGWAPQVAVLAKPAIGGFVTHCGWNSILESLWFGVPIAPWPLYAEQKFNAFVMVEELGLAVKIRKYWRGDQLVGTATVIVTAEEIERGIRCLMEQDSDVRNRVKEMSKKCHMALKDGGSSQSALKLFIQDVTKYIA
- Specific activity (nkat/mg protein) 3-O-glc: 0.31 nkat/mg protein
- Specific activity (nkat/mg protein) 3′-O-glc: — (Activity lower than 0.02 nkat/mg protein has been considered as trace activity and is not shown in the Table.)
- Specific activity (nkat/mg protein) 4′-O-glc: 0.25 nkat/mg protein
- Specific activity (nkat/mg protein) 7-O-glc: — (Activity lower than 0.02 nkat/mg protein has been considered as trace activity and is not shown in the Table.)

B2: UGT71C2: Arabidopsis recombinant glycosyltransferase (protein, UniProt O82382 1-474, looked up)
UDP-glycosyltransferase 71C2: MAKQQEAELIFIPFPIPGHILATIELAKRLISHQPSRIHTITILHWSLPFLPQSDTIAFLKSLIETESRIRLITLPDVQNPPPMELFVKASESYILEYVKKMVPLVRNALSTLLSSRDESDSVHVAGLVLDFFCVPLIDVGNEFNLPSYIFLTCSASFLGMMKYLLERNRETKPELNRSSDEETISVPGFVNSVPVKVLPPGLFTTESYEAWVEMAERFPEAKGILVNSFESLERNAFDYFDRRPDNYPPVYPIGPILCSNDRPNLDLSERDRILKWLDDQPESSVVFLCFGSLKSLAASQIKEIAQALELVGIRFLWSIRTDPKEYASPNEILPDGFMNRVMGLGLVCGWAPQVEILAHKAIGGFVSHCGWNSILESLRFGVPIATWPMYAEQQLNAFTIVKELGLALEMRLDYVSEYGEIVKADEIAGAVRSLMDGEDVPRRKLKEIAEAGKEAVMDGGSSFVAVKRFIDGL
- Specific activity (nkat/mg protein) 3-O-glc: 0.16 nkat/mg protein
- Specific activity (nkat/mg protein) 3′-O-glc: 0.03 nkat/mg protein
- Specific activity (nkat/mg protein) 4′-O-glc: — (Activity lower than 0.02 nkat/mg protein has been considered as trace activity and is not shown in the Table.)
- Specific activity (nkat/mg protein) 7-O-glc: 0.24 nkat/mg protein

B3: UGT76E1: Arabidopsis recombinant glycosyltransferase (protein, UniProt Q9LTH3 1-453, looked up)
UDP-glycosyltransferase 76E1: MEELGVKRRIVLVPVPAQGHVTPIMQLGKALYSKGFSITVVLTQYNRVSSSKDFSDFHFLTIPGSLTESDLKNLGPFKFLFKLNQICEASFKQCIGQLLQEQGNDIACVVYDEYMYFSQAAVKEFQLPSVLFSTTSATAFVCRSVLSRVNAESFLLDMKDPKVSDKEFPGLHPLRYKDLPTSAFGPLESILKVYSETVNIRTASAVIINSTSCLESSSLAWLQKQLQVPVYPIGPLHIAASAPSSLLEEDRSCLEWLNKQKIGSVIYISLGSLALMETKDMLEMAWGLRNSNQPFLWVIRPGSIPGSEWTESLPEEFSRLVSERGYIVKWAPQIEVLRHPAVGGFWSHCGWNSTLESIGEGVPMICRPFTGDQKVNARYLERVWRIGVQLEGELDKGTVERAVERLIMDEEGAEMRKRVINLKEKLQASVKSRGSSFSSLDNFVNSLKMMNFM
- Specific activity (nkat/mg protein) 3-O-glc: 0.02 nkat/mg protein
- Specific activity (nkat/mg protein) 3′-O-glc: — (Activity lower than 0.02 nkat/mg protein has been considered as trace activity and is not shown in the Table.)
- Specific activity (nkat/mg protein) 4′-O-glc: — (Activity lower than 0.02 nkat/mg protein has been considered as trace activity and is not shown in the Table.)
- Specific activity (nkat/mg protein) 7-O-glc: 0.08 nkat/mg protein
